Source: patent publication US7531661B2, “Indane compounds as CCR5 antagonists” (SmithKline Beecham Corporation, priority 2002, dated 2009)

Biological target: T1, human CCR5 chemokine receptor (Homo sapiens, UniProt P51681)
T1 construct: host or cells: Chinese Hamster Ovary (CHO) cells; membranes prepared from the cell pellet
Experiment: CC-Chemokine Receptor-5 Binding by Scintillation Proximity Assay (CCR5 SPA), displacement of 125I-MIP1α
Details: standards plate, 14-point concentration-response curve in triplicate, starting concentration 1 μM
Protocol: CC-Chemokine Receptor-5 Binding by Scintillation Proximity Assay (CCR5 SPA)
Scintillation Proximity Assay for the Human CC-Chemokine Receptor, CCR-5
This protocol describes a high-throughput screen using SPA binding to identify compounds that inhibit binding of ^125I-MIP1α to the human CCR5 chemokine receptor.
Human CCR5 receptors were expressed in Chinese Hamster Ovary (CHO) cells, registration # 12025. Cells were grown in suspension and a 50 to 80 ml CCR5 cell pellet was prepared. […]
The saturation curve binding experiment is performed by adding varying amounts of [^125I]MIP1α (0-8.5 nM to membranes and beads in concentrations chosen from the optimal protein/bead ratio. The data is analyzed using a non-linear curve-fitting program. The Kd and Bmax are derived from the curve. […]

T1 sequence (P51681 whole entry): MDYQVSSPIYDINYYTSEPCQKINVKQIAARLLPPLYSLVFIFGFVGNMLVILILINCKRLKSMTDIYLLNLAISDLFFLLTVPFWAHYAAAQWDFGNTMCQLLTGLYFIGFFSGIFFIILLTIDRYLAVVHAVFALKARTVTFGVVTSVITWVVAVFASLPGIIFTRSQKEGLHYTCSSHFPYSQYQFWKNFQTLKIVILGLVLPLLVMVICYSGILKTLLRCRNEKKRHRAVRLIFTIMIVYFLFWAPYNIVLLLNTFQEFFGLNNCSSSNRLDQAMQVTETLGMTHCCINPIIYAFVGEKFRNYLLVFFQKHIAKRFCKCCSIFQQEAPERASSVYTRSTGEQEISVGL

average historical pKi obtained with MIP1α: 7.6
Substance: MIP1α: standard compound of the CCR5 SPA; natural chemokine ligand of CCR5
